This note sets out measurements from PMC3838125, “Crystal Structure of Venezuelan Hemorrhagic Fever Virus Fusion Glycoprotein Reveals a Class 1 Postfusion Architecture with Extensive Glycosylation” (Journal of Virology, 2013).

The data set concerns the molecule itself. Nature of the data set: crystal structure.

B1: Guanarito virus (GTOV) fusion glycoprotein GP2, residues 292 to 418 (domain or fragment)
chain: DSEFCDMLRLFDFNKNAIEKLNNQTKTAVNMLTHSINSLISDNLLMRNKLKEILKVPYCNYTRFWYINHTKSGEHSLPRCWLVSNGSYLNESDFRNEWILESDHLIAEMLSKEYQDRQGKTPLTLVD
notes: also called GTOV GP2
One may read the stoichiometry N as a count of units in the complex or per binding partner. For the protein B1, the “stoichiometry N” value is 3.
